Source: US6808930B1, “Therapeutic agents” (priority 1997, dated 2004)

How the values were obtained:
L1210 cells [1] = experiment: DNA fragmentation by gel electrophoresis and FIGE; type: cell-based, murine
Method: (§1) Remaining cells were analysed for DNA fragmentation.

A549 cells [2] = experiment: DNA fragmentation by gel electrophoresis and FIGE; type: cell-based, human
Method: as §1

HRTEC cells [3] = experiment: DNA fragmentation by gel electrophoresis and FIGE; type: cell-based, human; conditions: 4 mg/ml for 24 h
Method: as §1

L1210 cells [4] = experiment: Cell surface binding of biotinylated protein, flow cytometry; set-up: species or system murine; conditions: biotinylated MAL
Method: MAL, human α-lactalbumin (HLA) and immunoglobulin G were biotinylated according to the manufacturer's instructions or labelled with ^125I with the lactoperoxidase method. Proteins were dissolved in PBSA-T buffer (30 mM Na2HPO4, 120 mM NaCl, pH 7.4, with 0.1% NaAzid, 0.05% Tween-20) and 25 μl of protein (25 μg) was incubated with 2 μl of ^125([…]), 2 μl of lactoperoxidase (2.5 mg/ml) and 2 μl of H2O2 (diluted 1:2000 in PBS) for 2 min at room temperature. The reaction was stopped by the addition of 500 μl of PBSA-T. The labelled protein was purified on a PD-10 column. 500 μl fractions in PBSA-T were eluted and fractions containing radioactivity were stored at […]. […] L1210, A549 and HRTEC cells (3×10^6 cells/ml, 50 μl) were incubated in suspension with 50 μl of biotinylated MAL, ALA or BSA for various times at 37° C. The cells were washed with PBS by centrifugation at 320×g for 10 min and the supernatant was discarded. FITC-conjugated streptavidin (diluted 1:50 in PBS) was added and the cells were incubated for 30 min at room temperature. The cells were washed by centrifugation as above, suspended in 300 μl PBS and the surface fluorescence was analysed by flow cytometry on a Coulter Epics Profile II flow cytometer (Coulter Inc.), equipped with a 488 nm argon laser. Green fluorescence was detected with a 525 nm band pass filter. The PMT voltage was initially set to 1250 V and adjusted for day to day variation using calibration with Immunobeads (Coulter).

L1210 cells [5] = experiment: Cell surface binding of 125I-labelled protein, cell associated radioactivity; set-up: species or system murine; conditions: 30 min exposure to 2×10^6 cpm of 125I-labelled protein
Method: (§2) Cell surface binding of MAL was also quantitated as the cell associated radioactivity during the first 30 min after addition of ^125I-labelled MAL to the cells (FIG. 2B). […]

A549 cells [6] = experiment: as above; set-up: species or system human; conditions: 30 min exposure to 2×10^6 cpm of 125I-labelled protein
Method: as §2

HRTEC cells [7] = experiment: as above; set-up: species or system human; conditions: 30 min exposure to 2×10^6 cpm of 125I-labelled protein
Method: as §2

L1210 cells [8] = experiment: Nuclear uptake of biotinylated protein, confocal microscopy; type: cell-based, murine
Method: (§3) To detect intracellular protein, the cells were fixed at various times after addition of 0.3 mg/ml of biotinylated MAL for 5 min in phosphate-buffered paraformaldehyde (4%) (B. Sander et al., Immunol. Rev. (1991) 119: 65-92) at room temperature, washed in PBS, and permeabilized with 0.1% saponin in PBS. FITC conjugated streptavidin (diluted 1:100 in 0.1% saponin) was added and the cells were incubated for 30 min at room temperature. The cells were washed twice in PBS-saponin and once in PBS, mounted on a glass slide and analysed in a Bio-Rad 1024 laser scanning confocal equipment (Bio Rad Laboratories, Hemel-Hempstead, UK) attached to a Nikon Diaphot inverted microscope.

A549 cells [9] = experiment: as above; type: cell-based, human
Method: as §3

HRTEC cells [10] = experiment: as above; type: cell-based, human; conditions: biotinylated MAL (1 mg/ml elsewhere in the source)
Method: as §3, with “To detect intracellular protein, the cells were fixed at various times after addition of 0.3 mg/ml of biotinylated MAL for 5 min in phosphate-buffered paraformaldehyde (4%) (B.” left out

[11] = system: L1210, A549 and HRTEC nuclei; experiment: DNA fragmentation in isolated nuclei; type: cell-based
Method: Nuclei were purified from L1210, A549 and HRTEC cells and incubated with low concentrations of MAL (0.2 and 0.4 mg/ml). The formation of HMW and oligonucleosome length DNA fragments was examined.
A549, L1210 and HRTEC nuclei were isolated from homogenised cells. Pellet 1 from the homogenisation was washed twice in nuclei buffer for 20 min at 100×g and suspended in nuclei buffer for experiments. Rat liver nuclei was isolated.
A549, L1210 or HRTEC nuclei in suspension were placed in individual wells in a 24-well plate ([…]), mixed with MAL, α-lactalbumin, lactoferrin or BSA (100 μl in nucleus buffer), incubated at 37° C. for 1 hour (L1210,) or 2 hours (A549 and HRTEC), harvested by aspiration, analysed for DNA fragmentation as described above.

[12] = system: digitonin-permeabilized L1210, A549 and HRTEC cells; experiment: Nuclear uptake of biotinylated protein in digitonin-permeabilized cells; type: cell-based; conditions: digitonin treated cells, biotinylated MAL
Method: Briefly, 1×10^6 cells were incubated in 100 μl of nuclear transport buffer (NTB), with the addition of 1 μg/ml each of leupeptin, aprotinin, antipain, and 40 μg/ml of digitonin for 5 min at room temperature and washed by centrifugation at 320×g for 10 min in NTB. Biotinylated protein (5 μl, 5 mg/ml) was added to the cells in a total volume of 100 μl NTB supplemented with phosphcreatin, creatine phosphokinase and ATP, incubated for various time at RT and washed twice in NTB by centrifugation at 320×g for 10 min. The cells were treated with 0.2% Triton-X100 in NTB for 6 min and washed finally 1:100 dilution of fluorescein-conjugated strepatvidin was added for 30 min at RT and washed. The cells were then inspected by fluorescence microscopy in a Nikon Microphot (Japan) microscope or by laser scanning confocal microscopy in a BioRad MRC-1024 instrument.
Digitonin permeabilizes the plasma nembrane, but leaves the nuclear membrane intact. […] Human IgG and monomeric α-lactalbumin were used as controls.
The digitonin-permeabilized L1210 cells were preincubated with 50 μg/ml of WGA for 20 minutes, washed and exposed to biotinylated MAL. IgG and α-lactalbumin were used as controls (FIG. 7).
The cells pretreated with WGA were then washed by centrifugation in NTB at 320×g for 10 min before addition of protein.

[13] = stated for the three cell types
[14] = isolated nuclei from the three cell types, 0.2 and 0.4 mg/ml

B1: MAL: protein complex from human milk casein containing oligomeric forms of α-lactalbumin; the apoptosis-inducing fraction (protein, UniProt P00709 20-142, looked up)
Alpha-lactalbumin: KQFTKCELSQLLKDIDGYGGIALPELICTMFHTSGYDTQAIVENNESTEYGLFQISNKLWCKSSQVPQSRNICDISCDKFLDDDITDDIMCAKKILDIKGIDYWLAHKALCTEKLEQWLCEKL
modifications: oligomeric form from milk casein
notes: protein complex from human milk casein containing oligomeric forms of α-lactalbumin; the apoptosis-inducing fraction
time at which fragmentation of DNA was first seen (L1210 cells [1]; 0.3 mg/ml): 6 h | incubation time after which HMW DNA fragments were observed (L1210 cells [1]; 0.5 mg/ml): 30 min | incubation time after which oligonucleosome length DNA fragments were detected (L1210 cells [1]; 0.5 mg/ml): three | time at which fragmentation of DNA was seen (L1210 cells [1]; 0.75 mg/ml): 2 h | concentration at which HMW fragmentation was maximal (A549 cells [2]): 1500 µg/mL | concentration at which no chromosomal DNA was seen (A549 cells [2]): 2.5 mg/mL | oligonucleosomal DNA fragmentation (A549 cells [2]): No oligonculeosomal fragmentation was detected | time at which HMW fragmentation was first detected (A549 cells [2]; 1.0 mg/ml): 6 h | HMW DNA fragmentation (HRTEC cells [3]): did not undergo HMW DNA fragmentation | fluorescence intensity of cell surface binding (L1210 cells [4]; 30 min, first of three cell types (L1210 by order)): 12.1 times that of the streptavidin control | time after which cell surface binding reached a maximum (L1210 cells [4]; [13]): 30 min | time after which cell surface binding was detected (L1210 cells [4]; [13]): 10 min | cell surface binding, cell associated radioactivity (L1210 cells [5]): 23 000 cpm | cell surface binding, cell associated radioactivity (A549 cells [6]): 20 000 cpm | cell surface binding, cell associated radioactivity (HRTEC cells [7]): 18 000 cpm | cells with nuclear staining (L1210 cells [8]; 0.3 mg/ml biotinylated protein, after about 2 hours (first detected)): about 10% | cells with nuclear staining (L1210 cells [8]; 0.3 mg/ml, after 1 hour): 10% | cytoplasmic staining (L1210 cells [8]; biotinylated MAL): Cytoplasmic staining was not observed | incubation time after which cytoplasmic, granular fluorescence was detected (A549 cells [9]; FIG. 3): 3 h | incubation time at which nuclear accumulation was maximal (A549 cells [9]; FIG. 3): 24 h | cytoplasmic staining (A549 cells [9]; biotinylated MAL): granular fluorescence evenly distributed throughout the cell | cell nuclei stained brightly (A549 cells [9]; biotinylated MAL, longer incubation times (time not given)): About 15% | nuclear uptake (HRTEC cells [10]): Nuclear uptake was not observed | induction of DNA fragmentation in isolated nuclei ([11]; isolated nuclei): could induce DNA fragmentation | time after which formation of HMW DNA fragments was enhanced [11, 14]: one | time after which formation of oligonucleosome length fragments was enhanced [11, 14]: 2 h | time at which maximum nuclear levels were reached [12]: 20 min
